These are literature values, as cited in patent publication US20250282866A1, “TREATMENT OF DISEASES RELATED TO ATP-BINDING CASSETTE TRANSPORTER 1 DYSFUNCTION USING TREM2 AGONISTS” (VIGIL NEUROSCIENCE, INC., priority 2020, published 2025).

Changes are numbered by the printed parent chain. Numbers in names are those of the source.

The series addresses T1, human TREM2 (Homo sapiens, UniProt Q9NZC2).
T1 sequence (Q9NZC2 19-230): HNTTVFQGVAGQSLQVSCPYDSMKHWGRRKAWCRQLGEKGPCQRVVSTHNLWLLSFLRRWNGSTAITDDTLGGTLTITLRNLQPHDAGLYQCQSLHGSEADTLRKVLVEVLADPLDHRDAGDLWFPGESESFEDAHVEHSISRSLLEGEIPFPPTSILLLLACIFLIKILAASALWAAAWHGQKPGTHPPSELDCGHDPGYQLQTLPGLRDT
Particulars: for Binding Signal (fold over 6E7 Parental antibody) 1st screen 110 nM or 10 nM: values printed without asterisk, concentration 110 nM or 10 nM (footnote a not given).

B1: V76: 6E7 variant: VH T30G, S63E, F110S; VL N56K (antibody, V domains shown)
VH: EVQLVQSGAEVKKPGESLKISCKGSGYSFGSYWIAWVRQMPGKGLEWMGIIYPGDSDTRYSPEFQGQVTISADKSISTAYLQWSSLKASDTAMYFCARQRTFYYDSSDYSDYWGQGTLVTVSS
VL: DIQMTQSPSSVSASVGDRVTITCRASQGISSWLAWYQQKPGKAPKLLIYAASSLQKGVPSRFSGSGSGRDFTLTISSLQPEDFATYFCQQADSFPRTFGQGTKLEIK
Regarding B1, the “Binding Signal (fold over 6E7 Parental antibody) 1st screen 110 nM or 10 nM” value is recorded as 4.57 fold over 6E7 Parental antibod, the “Binding Signal (fold over 6E7 Parental antibody) 2nd screen 2 nM” value is listed as 4.34 fold over 6E7 Parental antibod and the “Binding Signal (fold over 6E7 Parental antibody) 2nd screen 10 nM” value is on record as 4.93 fold over 6E7 Parental antibod.

B2: V84: 6E7 variant: VH S28G, F110S; VL A50G (antibody, V domains shown)
VH: B1 VH with S28G, G30T, E63S
VL: B1 VL with A50G, K56N, R69T
Take B2: the “Binding Signal (fold over 6E7 Parental antibody) 1st screen 110 nM or 10 nM” value was 1.44 fold over 6E7 Parental antibod, the “Binding Signal (fold over 6E7 Parental antibody) 2nd screen 2 nM” value is 1.45 fold over 6E7 Parental antibod and the “Binding Signal (fold over 6E7 Parental antibody) 2nd screen 10 nM” value is 1.62 fold over 6E7 Parental antibod.
